Data on 51 substances can be found in patent US20240368668A1, “SUBSTRATES AND BIOMARKERS OF ADAMTS7” (The Broad Institute, Inc., priority 2021, published 2024).

Square brackets hold non-standard residues; d marks the D form. Ends that are not written are not given here. deamidated = deamidated asparagine; Met(O) = CS(=O)CC[C@H](N)C(=O)O

The assay concerns the target T1, mouse ADAMTS7 (Mus musculus, UniProt Q68SA9, E373Q).
T1 construct: Full-length mouse Adamts7 1-1857 (Uniprot Q68SA9, WT or E373Q catalytic mutant); expressed in transfected cells; host or cells: Human Coronary Artery Smooth Muscle Cells (HCA-SMC, Lonza), adenovirus 50 MOI
T1 sequence (Q68SA9 221-1657 E373Q): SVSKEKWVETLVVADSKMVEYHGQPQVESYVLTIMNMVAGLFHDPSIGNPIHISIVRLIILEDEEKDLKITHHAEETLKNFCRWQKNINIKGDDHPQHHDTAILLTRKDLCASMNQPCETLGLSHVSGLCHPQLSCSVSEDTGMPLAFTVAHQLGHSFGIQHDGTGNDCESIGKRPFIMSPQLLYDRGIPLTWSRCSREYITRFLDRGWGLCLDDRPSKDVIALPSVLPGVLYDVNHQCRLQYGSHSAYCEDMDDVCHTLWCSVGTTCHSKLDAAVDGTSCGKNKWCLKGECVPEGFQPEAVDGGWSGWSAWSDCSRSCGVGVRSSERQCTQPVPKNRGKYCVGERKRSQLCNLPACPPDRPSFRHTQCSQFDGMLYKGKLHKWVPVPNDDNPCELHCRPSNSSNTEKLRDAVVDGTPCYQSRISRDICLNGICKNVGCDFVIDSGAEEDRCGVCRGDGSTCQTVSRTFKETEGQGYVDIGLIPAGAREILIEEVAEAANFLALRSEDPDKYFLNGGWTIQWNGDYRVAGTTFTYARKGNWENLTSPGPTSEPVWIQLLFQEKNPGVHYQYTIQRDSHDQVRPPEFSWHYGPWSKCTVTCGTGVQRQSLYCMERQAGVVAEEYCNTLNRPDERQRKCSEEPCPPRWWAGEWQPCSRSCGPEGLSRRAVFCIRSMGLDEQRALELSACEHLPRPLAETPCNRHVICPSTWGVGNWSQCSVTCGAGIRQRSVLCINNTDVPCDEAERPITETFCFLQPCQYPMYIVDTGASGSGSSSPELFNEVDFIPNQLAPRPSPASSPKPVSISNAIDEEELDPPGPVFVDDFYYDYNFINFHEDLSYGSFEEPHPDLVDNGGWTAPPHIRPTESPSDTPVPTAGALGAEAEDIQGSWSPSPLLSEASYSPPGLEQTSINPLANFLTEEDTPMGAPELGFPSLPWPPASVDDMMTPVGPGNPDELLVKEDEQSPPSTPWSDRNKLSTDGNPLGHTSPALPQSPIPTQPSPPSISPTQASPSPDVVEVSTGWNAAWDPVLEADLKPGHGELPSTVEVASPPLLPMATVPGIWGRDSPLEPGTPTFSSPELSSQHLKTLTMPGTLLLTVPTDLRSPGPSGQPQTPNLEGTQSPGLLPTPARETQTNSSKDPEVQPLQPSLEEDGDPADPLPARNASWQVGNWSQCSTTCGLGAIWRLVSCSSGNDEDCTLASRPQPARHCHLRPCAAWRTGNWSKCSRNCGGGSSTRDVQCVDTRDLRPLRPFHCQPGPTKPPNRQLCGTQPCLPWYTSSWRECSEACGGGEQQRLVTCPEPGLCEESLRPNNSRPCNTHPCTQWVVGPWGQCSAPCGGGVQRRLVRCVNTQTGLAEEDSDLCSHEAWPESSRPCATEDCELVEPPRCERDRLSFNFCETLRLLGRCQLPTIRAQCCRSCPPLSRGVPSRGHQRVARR
Kind of assay: TMT10 TAILS N-terminomics, SMC1 experiment (Ad-mADAMTS7 WT vs EQ vs Luc, technical replicates, trypsin digest). The class given is cell-based. The conditions noted are these: TAILS neo-N-terminal peptide abundance; log fold change, Ad-mADAMTS7 EQ over Luc. Summed up:
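Full-length mouse ADAMTS7 (WT or E373Q mutant, C-terminal 3xFLAG) or luciferase was transduced via adenovirus, 50 MOI, into HCA-SMC (SMC1, SMC2) or HUVEC. SMC1: pooled media, technical triplicates 400 ug; SMC2: process triplicates 300 ug; HUVEC: process triplicates 200 ug, bFGF2 10 ng/ml.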
With “CDC37_43 (FQKEKEELDR; listed as Homo sapiens)”, the logFC.mEQ.over.Luc is recorded as −0.12.

“CDH11_467 (HQEAKVPVAIR; listed as Homo sapiens)” yielded a logFC.mEQ.over.Luc of −0.03.

In turn, “CLEC11A_50 (HLQEALGLPAGR; listed as Homo sapiens)” came in with a logFC.mEQ.over.Luc of −0.34.

“COL1A2_80 (QYDGKGVGLGPGPMGLMGPR; listed as Homo sapiens)”: the logFC.mEQ.over.Luc is listed as 0.19.

The substance “COL1A2_91 (GPMGLMGPR; listed as Homo sapiens)” returned a logFC.mEQ.over.Luc of −0.07.

On to “COL1A2_113 (FQGPAGEPGEPGQTGPAGAR; listed as Homo sapiens)”, for which the logFC.mEQ.over.Luc was −0.61.

In turn, “COL1A2_270 (VGNAGPAGPAGPR; listed as Homo sapiens)” had a logFC.mEQ.over.Luc of 0.70.

“COL1A2_305 (LTGAKGAAGLPGVAGAPGLPGPR; listed as Homo sapiens)” gave a logFC.mEQ.over.Luc of −0.16.

For “COL1A2_389 (SAGPPGPPGLR; listed as Homo sapiens)”, the logFC.mEQ.over.Luc came out at 0.39.

Consider “COL1A2_425 (ASGPAGVR; listed as Homo sapiens)”, for which the logFC.mEQ.over.Luc is reported as −0.17.

“COL1A2_630 (VGTAGPSGPSGLPGER; listed as Homo sapiens)” came in with a logFC.mEQ.over.Luc of −0.27.

In the case of “COL1A2_681 (VGAPGPAGATGDR; listed as Homo sapiens)”, the logFC.mEQ.over.Luc is −0.34.

The substance “COL1A2_731 (AAGQPGAKGER; listed as Homo sapiens)” gave a logFC.mEQ.over.Luc of −0.18.

As to “COL1A2_866 (LLGAPGILGLPGSR; listed as Homo sapiens)”, the logFC.mEQ.over.Luc is given as −0.24.

The substance “COL1A2_960 (AGAPGPHGPVGPAGKHGNR; listed as Homo sapiens)” registered a logFC.mEQ.over.Luc of −0.35.

“COL1A2_1028 (LQGLPGIAGHHGDQGAPGSVGPAGPR; listed as Homo sapiens)” yielded a logFC.mEQ.over.Luc of −0.28.

Substance “COL1A2_1037 (HHGDQGAPGSVGPAGPR; listed as Homo sapiens)” showed a logFC.mEQ.over.Luc of −0.79.

In the case of “COL1A2_1127 (SLRPKDYEVDATLKSLNNQIETLLTPEGSR; listed as Homo sapiens)”, the logFC.mEQ.over.Luc was −0.45.

Turning to “COL4A2_71 (YNGPPGLQGFPGLQGR; listed as Homo sapiens)”, the logFC.mEQ.over.Luc is recorded as −0.37.

For “COL4A2_172 (YALPKEER; listed as Homo sapiens)”, the logFC.mEQ.over.Luc is 0.76.

The substance “COL5A1_544 (SQAQAILQQAR; listed as Homo sapiens)” yielded a logFC.mEQ.over.Luc of −0.21.

Consider “COL8A1_90 (MKEIQPAPR; listed as Homo sapiens)”, for which the logFC.mEQ.over.Luc is −0.25.

Take “COL18A1_1505 (LQPPVVQLHDSNPYPR; listed as Homo sapiens)”: the logFC.mEQ.over.Luc is recorded as −0.01.

The substance “ECM1_43 (YAAPPSPPLSR; listed as Homo sapiens)” registered a logFC.mEQ.over.Luc of −0.04.

In turn, “LTBP2_1602 (EAGVHFR; listed as Homo sapiens)” came in with a logFC.mEQ.over.Luc of 0.64.

As for “MAN2A1_51 (LQEKIDHLER; listed as Homo sapiens)”, the logFC.mEQ.over.Luc was 0.18.

The substance “MAP1B_1065 (LTTPTKQLGAQSPGR; listed as Homo sapiens)” had a logFC.mEQ.over.Luc of −0.20.

For “MAP4_815 (AVASTGPSSR; listed as Homo sapiens)”, the logFC.mEQ.over.Luc amounted to 0.10.

“MAP4_816 (VASTGPSSR; listed as Homo sapiens)” had a logFC.mEQ.over.Luc of −0.18.

The substance “MGAT4B_28 (LSGQKGDVVDVYQR; listed as Homo sapiens)” came in with a logFC.mEQ.over.Luc of −0.23.

In the case of “MMP1_24 (LETQEQDVDLVQKYLEKYYNLKN(deamidated)DGR; listed as Homo sapiens)”, the logFC.mEQ.over.Luc is recorded as −0.08.

With “NID2_291 (HSSVPLGR; listed as Homo sapiens)”, the logFC.mEQ.over.Luc is −0.08.

“NID2_374 (VGGPDLKGQVEPWDER; listed as Homo sapiens)” yielded a logFC.mEQ.over.Luc of −0.14.

As for “NID2_467 (LEDNIGSNTEVFTYNAANKETCEHNHR; listed as Homo sapiens)”, the logFC.mEQ.over.Luc was −0.09.

“NID2_951 (YAYPGAR; listed as Homo sapiens)” displayed a logFC.mEQ.over.Luc of −0.58.

“NUCB1_228 (LKEVWEELDGLDPNR; listed as Homo sapiens)” returned a logFC.mEQ.over.Luc of 0.07.

Substance “NUCB1_317 (FLASTQR; listed as Homo sapiens)” gave a logFC.mEQ.over.Luc of −0.11.

As for “NUCB1_389 (LQQAVLHMEQR; listed as Homo sapiens)”, the logFC.mEQ.over.Luc is 0.15.

In the case of “OS9_54 ([code q]SQSSDVVIVSSKYKQR; also: modified N-terminal Gln; listed as Homo sapiens)”, the logFC.mEQ.over.Luc is −0.14.

“OS9_55 (SQSSDVVIVSSKYKQR; listed as Homo sapiens)”: the logFC.mEQ.over.Luc is given as −0.06.

As for “PAPPA_41 (AAGPATCATR; listed as Homo sapiens)”, the logFC.mEQ.over.Luc was determined as 0.35.

The substance “PDLIM4_104 (IDPEIQDGSPTTSR; listed as Homo sapiens)” had a logFC.mEQ.over.Luc of −0.13.

Take “POLR3G_88 (LFCSHWSHIPGFK; listed as Homo sapiens)”: the logFC.mEQ.over.Luc came out at 0.00.

“POSTN_413 (FSDDTLSMDQR; listed as Homo sapiens)”: the logFC.mEQ.over.Luc is reported as −0.02.

In turn, “POSTN_754 (IITGPEIKYTR; listed as Homo sapiens)” had a logFC.mEQ.over.Luc of 0.10.

In the case of “POSTN_790 (FIEGGDGHLFEDEEIKR; listed as Homo sapiens)”, the logFC.mEQ.over.Luc was −0.31.

The substance “POSTN_807 (LLQGDTPVR; listed as Homo sapiens)” showed a logFC.mEQ.over.Luc of −0.07.

“PPP1R18_295 (LSETLTR; listed as Homo sapiens)” came in with a logFC.mEQ.over.Luc of −0.08.

The substance “PSAP_171 (F[Met(O)]ANIPLLLYPQDGPR; listed as Homo sapiens)” registered a logFC.mEQ.over.Luc of 0.10.

“PXDN_1341 (SYQEDKPTKKTR; listed as Homo sapiens)” registered a logFC.mEQ.over.Luc of 1.36.

Substance “PXDN_1393 (QKTITDLR; listed as Homo sapiens)” yielded a logFC.mEQ.over.Luc of 0.10.
